Experiments:
[1] = molecular target: T1, HEN1-R^1LR^2 (His-tagged, residues 1–519) (Arabidopsis thaliana, UniProt Q9C5Q8 1-519); assay: pull-down
T1 sequence (looked up): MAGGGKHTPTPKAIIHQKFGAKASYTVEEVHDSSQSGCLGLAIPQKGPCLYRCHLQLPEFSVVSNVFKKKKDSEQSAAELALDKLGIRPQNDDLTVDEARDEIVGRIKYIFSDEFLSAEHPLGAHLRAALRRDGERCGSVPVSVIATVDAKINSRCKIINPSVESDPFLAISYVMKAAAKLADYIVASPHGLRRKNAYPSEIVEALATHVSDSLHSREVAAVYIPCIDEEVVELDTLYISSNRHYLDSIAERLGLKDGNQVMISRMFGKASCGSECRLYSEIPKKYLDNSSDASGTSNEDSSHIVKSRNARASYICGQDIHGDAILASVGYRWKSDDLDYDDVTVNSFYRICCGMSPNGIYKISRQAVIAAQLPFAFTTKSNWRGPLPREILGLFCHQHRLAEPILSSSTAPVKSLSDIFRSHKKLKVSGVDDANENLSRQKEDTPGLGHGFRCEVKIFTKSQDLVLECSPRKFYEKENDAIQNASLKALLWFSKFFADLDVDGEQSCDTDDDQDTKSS

[2] = molecular target: T2, HEN1 wt;HYL1 (Arabidopsis thaliana;Arabidopsis …, UniProt Q9C5Q8;O04492 1-942;1-419, |); assay: EMSA
T2 sequence 1: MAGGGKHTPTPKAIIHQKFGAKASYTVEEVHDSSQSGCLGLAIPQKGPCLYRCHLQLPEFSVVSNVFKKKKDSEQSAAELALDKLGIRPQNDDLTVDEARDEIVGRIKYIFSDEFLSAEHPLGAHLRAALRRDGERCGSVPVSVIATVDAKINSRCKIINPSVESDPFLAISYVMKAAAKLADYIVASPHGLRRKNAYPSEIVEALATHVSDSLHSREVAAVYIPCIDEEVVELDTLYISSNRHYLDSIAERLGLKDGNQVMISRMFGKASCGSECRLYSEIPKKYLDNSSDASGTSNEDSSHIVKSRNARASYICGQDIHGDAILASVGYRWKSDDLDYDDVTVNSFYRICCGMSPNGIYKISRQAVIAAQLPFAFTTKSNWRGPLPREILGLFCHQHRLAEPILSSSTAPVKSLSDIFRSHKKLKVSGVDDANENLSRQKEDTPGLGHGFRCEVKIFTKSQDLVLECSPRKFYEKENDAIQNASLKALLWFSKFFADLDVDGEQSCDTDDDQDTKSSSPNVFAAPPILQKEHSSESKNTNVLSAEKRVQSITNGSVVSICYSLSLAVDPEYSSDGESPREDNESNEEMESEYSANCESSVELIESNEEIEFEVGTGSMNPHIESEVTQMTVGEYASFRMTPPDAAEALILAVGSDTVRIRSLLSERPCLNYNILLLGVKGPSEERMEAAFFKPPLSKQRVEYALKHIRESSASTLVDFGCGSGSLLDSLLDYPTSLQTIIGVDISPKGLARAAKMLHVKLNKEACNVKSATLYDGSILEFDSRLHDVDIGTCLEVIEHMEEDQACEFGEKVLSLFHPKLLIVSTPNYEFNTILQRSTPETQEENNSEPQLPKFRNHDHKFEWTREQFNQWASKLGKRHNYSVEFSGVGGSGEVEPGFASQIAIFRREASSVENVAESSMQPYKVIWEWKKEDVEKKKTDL
T2 sequence 2: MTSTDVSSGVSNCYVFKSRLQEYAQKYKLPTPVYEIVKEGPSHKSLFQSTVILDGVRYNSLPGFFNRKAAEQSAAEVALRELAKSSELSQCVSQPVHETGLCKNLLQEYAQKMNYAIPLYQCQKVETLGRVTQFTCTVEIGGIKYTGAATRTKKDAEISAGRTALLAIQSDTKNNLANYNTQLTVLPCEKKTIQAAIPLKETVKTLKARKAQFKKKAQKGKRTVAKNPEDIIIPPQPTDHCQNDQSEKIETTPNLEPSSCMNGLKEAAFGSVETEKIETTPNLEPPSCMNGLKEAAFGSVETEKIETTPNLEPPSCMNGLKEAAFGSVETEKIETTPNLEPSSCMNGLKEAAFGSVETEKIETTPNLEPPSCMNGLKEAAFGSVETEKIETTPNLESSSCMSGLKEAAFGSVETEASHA

[3] = molecular target: T3, HEN1-RHK389,397,477AAA (Arabidopsis thaliana, UniProt Q9C5Q8 1-942, R389A;H397A;K477A); assay: EMSA
T3 sequence: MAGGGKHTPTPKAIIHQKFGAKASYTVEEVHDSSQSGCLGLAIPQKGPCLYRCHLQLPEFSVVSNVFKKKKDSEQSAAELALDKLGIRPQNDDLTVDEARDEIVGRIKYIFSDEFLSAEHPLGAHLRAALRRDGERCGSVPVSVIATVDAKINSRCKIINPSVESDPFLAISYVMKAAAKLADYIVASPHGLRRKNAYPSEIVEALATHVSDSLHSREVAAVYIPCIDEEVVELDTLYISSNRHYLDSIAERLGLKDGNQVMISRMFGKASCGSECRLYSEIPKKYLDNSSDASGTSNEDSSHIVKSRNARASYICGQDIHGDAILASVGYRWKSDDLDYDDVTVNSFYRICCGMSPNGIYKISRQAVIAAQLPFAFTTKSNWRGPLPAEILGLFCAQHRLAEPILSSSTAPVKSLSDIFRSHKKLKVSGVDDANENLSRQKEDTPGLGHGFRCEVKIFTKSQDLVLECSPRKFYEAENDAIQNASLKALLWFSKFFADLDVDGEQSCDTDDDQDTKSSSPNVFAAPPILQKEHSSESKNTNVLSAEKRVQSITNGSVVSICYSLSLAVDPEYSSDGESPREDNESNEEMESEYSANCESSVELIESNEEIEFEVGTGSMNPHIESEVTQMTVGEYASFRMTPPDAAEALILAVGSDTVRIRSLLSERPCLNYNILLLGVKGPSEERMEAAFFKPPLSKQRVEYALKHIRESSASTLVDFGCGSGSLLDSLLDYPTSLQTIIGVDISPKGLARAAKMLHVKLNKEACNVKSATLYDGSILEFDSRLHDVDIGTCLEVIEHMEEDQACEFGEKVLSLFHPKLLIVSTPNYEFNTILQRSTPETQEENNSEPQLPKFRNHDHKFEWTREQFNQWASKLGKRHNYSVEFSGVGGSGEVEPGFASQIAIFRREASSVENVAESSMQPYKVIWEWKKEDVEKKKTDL

[4] = molecular target: T4, HYL1 (Arabidopsis thaliana, UniProt O04492 1-419); assay: EMSA
T4 sequence: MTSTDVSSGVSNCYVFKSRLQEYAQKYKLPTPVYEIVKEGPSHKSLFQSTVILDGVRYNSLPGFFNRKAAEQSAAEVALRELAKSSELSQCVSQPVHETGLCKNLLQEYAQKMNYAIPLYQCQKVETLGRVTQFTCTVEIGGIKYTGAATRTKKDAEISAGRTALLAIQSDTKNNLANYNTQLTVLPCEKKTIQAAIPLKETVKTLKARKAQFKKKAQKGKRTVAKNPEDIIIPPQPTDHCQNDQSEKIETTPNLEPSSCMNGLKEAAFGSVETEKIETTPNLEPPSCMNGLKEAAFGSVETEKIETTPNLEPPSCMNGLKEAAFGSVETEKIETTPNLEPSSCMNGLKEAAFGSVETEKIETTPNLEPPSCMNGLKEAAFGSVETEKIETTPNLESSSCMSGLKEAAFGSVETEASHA

[5] = molecular target: T3, HEN1-RHK389,397,477AAA; assay: EMSA; remark: listed apart in the source
[6] = molecular target: T5, HEN1 Δ38-45 (Arabidopsis thaliana, UniProt Q9C5Q8 1-37+=G+46-942, internal_change); assay: EMSA
T5 sequence: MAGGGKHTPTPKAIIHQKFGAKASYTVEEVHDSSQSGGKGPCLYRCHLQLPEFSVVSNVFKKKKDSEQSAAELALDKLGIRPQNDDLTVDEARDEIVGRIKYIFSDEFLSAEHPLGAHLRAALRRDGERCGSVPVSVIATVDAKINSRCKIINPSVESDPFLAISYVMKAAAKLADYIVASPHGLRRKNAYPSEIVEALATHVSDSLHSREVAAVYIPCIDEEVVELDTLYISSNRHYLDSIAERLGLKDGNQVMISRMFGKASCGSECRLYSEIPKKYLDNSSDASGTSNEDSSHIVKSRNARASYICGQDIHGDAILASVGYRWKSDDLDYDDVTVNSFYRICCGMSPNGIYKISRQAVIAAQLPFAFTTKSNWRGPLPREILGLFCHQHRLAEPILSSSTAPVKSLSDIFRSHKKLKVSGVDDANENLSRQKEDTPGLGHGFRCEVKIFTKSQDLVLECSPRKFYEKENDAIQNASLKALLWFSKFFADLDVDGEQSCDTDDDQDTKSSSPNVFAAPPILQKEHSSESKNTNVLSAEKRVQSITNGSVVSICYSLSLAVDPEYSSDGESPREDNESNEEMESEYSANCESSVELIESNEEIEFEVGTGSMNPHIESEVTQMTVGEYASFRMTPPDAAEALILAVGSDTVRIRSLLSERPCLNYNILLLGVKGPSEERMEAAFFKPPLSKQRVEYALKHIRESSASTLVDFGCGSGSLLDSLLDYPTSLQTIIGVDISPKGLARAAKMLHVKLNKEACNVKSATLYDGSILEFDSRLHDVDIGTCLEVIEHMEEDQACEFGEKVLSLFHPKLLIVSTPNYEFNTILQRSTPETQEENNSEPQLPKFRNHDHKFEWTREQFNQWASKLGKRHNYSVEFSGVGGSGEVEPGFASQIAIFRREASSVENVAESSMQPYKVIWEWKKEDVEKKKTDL

[7] = molecular target: T6, HEN1 wt (Arabidopsis thaliana, UniProt Q9C5Q8 1-942); assay: EMSA
T6 sequence: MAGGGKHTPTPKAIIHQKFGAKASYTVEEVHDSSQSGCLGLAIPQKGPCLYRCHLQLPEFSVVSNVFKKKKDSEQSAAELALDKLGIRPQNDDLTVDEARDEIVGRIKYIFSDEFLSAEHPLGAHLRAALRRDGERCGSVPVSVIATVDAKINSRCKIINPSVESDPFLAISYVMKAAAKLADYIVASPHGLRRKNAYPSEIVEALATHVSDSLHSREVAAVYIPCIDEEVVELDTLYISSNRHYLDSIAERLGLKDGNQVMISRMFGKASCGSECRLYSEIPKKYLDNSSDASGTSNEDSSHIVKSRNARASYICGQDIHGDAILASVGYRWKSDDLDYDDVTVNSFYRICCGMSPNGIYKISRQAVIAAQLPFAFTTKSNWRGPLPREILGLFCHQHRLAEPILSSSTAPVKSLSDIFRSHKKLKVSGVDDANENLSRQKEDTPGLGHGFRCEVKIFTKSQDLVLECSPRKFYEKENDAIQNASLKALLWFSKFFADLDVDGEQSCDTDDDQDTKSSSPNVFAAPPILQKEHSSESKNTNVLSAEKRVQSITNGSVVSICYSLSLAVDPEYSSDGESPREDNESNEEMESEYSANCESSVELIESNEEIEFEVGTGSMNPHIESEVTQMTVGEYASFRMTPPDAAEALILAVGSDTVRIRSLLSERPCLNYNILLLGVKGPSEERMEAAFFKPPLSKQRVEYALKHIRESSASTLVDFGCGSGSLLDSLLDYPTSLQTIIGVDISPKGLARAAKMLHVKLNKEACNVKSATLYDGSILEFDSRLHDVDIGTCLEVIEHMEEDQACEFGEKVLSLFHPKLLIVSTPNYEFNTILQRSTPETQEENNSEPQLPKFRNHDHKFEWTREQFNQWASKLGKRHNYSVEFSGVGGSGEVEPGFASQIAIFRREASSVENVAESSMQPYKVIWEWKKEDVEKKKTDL

B1: GST-HYL1 (GST-fused full-length HYL1) (natural protein, UniProt O04492 1-419, looked up)
chain: MTSTDVSSGVSNCYVFKSRLQEYAQKYKLPTPVYEIVKEGPSHKSLFQSTVILDGVRYNSLPGFFNRKAAEQSAAEVALRELAKSSELSQCVSQPVHETGLCKNLLQEYAQKMNYAIPLYQCQKVETLGRVTQFTCTVEIGGIKYTGAATRTKKDAEISAGRTALLAIQSDTKNNLANYNTQLTVLPCEKKTIQAAIPLKETVKTLKARKAQFKKKAQKGKRTVAKNPEDIIIPPQPTDHCQNDQSEKIETTPNLEPSSCMNGLKEAAFGSVETEKIETTPNLEPPSCMNGLKEAAFGSVETEKIETTPNLEPPSCMNGLKEAAFGSVETEKIETTPNLEPSSCMNGLKEAAFGSVETEKIETTPNLEPPSCMNGLKEAAFGSVETEKIETTPNLESSSCMSGLKEAAFGSVETEASHA
binding result [1]: binds

B2: siR173/siR173* (dsRNA)
RNA 1: UUAACGCUUGCAGAGAGAAUCAC
RNA 2: GAUUCUCUCUGCAAGCGUUAAAG
binding result [2]: binds | Kd [3]: 293 ± 27 nM | binding result [4]: binds

B3: miR173CH3/miR173*CH3 (dsRNA)
RNA 1: UUCGCUUGCAGAGAGAAAUCAC
RNA 2: GAUUCUCUGUGUAAGCGAAAG
modifications: 2'-O-methyl on 3'-terminal nucleotide of both strands
binding result [5]: no binding | Kd [6]: 2.1 ± 0.1 nM | Kd [7]: 7.2 ± 0.1 nM

Reference: publication PMC4357707 (Nucleic Acids Research, 2015)
